The nanobody polyreactivity screen of Harvey et al. (2022)

assay: yeast display, Sf9 membrane polyspecificity reagent, FACS + sequencing; frameworks hold sequencing errors
Method in brief: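 Polyreactivity labels are assigned by the sorting gate from which each nanobody was recovered. The gates were low and high (top ~1%), set on anti-HA fluorescence for expression and streptavidin fluorescence for reagent binding. Before sorting, galactose-induced (36–48 hours) yeast display cells were stained for 1 hour at 4 °C with 10% biotinylated, detergent-solubilized Sf9 membrane reagent.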

Sequence | polyreactivity (PSR sort gate)
QVQLVESGGGLVQAGGSLRLSCAASGRIFAYNALGWYRQAPGKERELVAAISWSGSSTYYADSVKGRFTISRDNAQNRVYLQMNSLTPEDTAVYYCAATPWYYYSTSYAYYDWGQGTQVTVSA | high polyreactivity
QVQLVESGGGLVQAGGSLRLSCAASGRIFAYNTMGWYRQAPGKERELVAVITSGGSTNYADSVKGRFTISRDNAKNTVYLQMNSLKPEDTAVDYCNAPYVARKRFSYNYWGQGTQVTVSS | high polyreactivity
QVQLVESGGGLVQAGGSLRLSCAASGRIFAYYAMGWYRQAPGKERELVAAISGSDGSTYYADSVKGRFTISLDNAKNTVYLQMNSLKPEDTAVYYCAAQDTPGYDYWGQGTQVTVSS | low polyreactivity
QVQLVESGGGLVQAGGSLRLSCAASGRIFAYYAMGWYRQAPGKERELVATINYSGTSTYYADSVKGRFTISRDNAKNTVYLQMNSLKPEDTAVYYCAARYGYAVYYYGTPVRRYYYWGQGTQVTVSS | high polyreactivity
QVQLVESGGGLVQAGGSLRLSCAASGRIFAYYAMGWYRQAPGKERELVATITDSGDDTYYADSVKGRFTISRDNAKNTVYLQMNSLKPEDTAVYYCNAVWRGWYPYWYDYWGQGTQVTVSS | low polyreactivity
QVQLVESGGGLVQAGGSLRLSCAASGRIFAYYAMGWYRQAPGKESELVAAINWSGDGTNYADSVKGRFTISRDNAKNTVYLQMNSLKPVDTAVYYCAARLGHSVNPGGERWDVEYWGQGTQVTVSS | low polyreactivity
QVQLVESGGGLVQAGGSLRLSCAASGRIFAYYAMGWYRQAPGTERELVALISSTGGSTYYADSVKGRFTISRDNAKNTVYLQMNSLKPEDTAVYYCNKQVTGAERFQGHGAYYWGQGTQVTVSS | high polyreactivity
QVQLVESGGGLVQAGGSLRLSCAASGRIFAYYTMGWYRQAPGKERELVASITSGSSTNYADSVKGLFTISRDNAKNTVYLQMNSLKPEDTAVYYCAAPRGSYVRTRYRGYVVQSNYWGQGTQVTVSS | high polyreactivity
QVQLVESGGGLVQAGGSLRLSCAASGRIFDANAMGWYRQAPGKERELVAAINLSGTSTYADSVKGRFTISRDNAKNTVYLQMNSLKPEDTAVYYCNKRSPSTIRFDYWGQGTQVTVSS | high polyreactivity
QVQLVESGGGLVQAGGSLRLSCAASGRIFDDNTMGWSRQAPGKERELVAVITSGGSTNYADSVKGRFTISRDNAKNTVYLQMNSLKQEDTAVYYCATEPGGYRFADRPFQYGYWGQGTQVTVSS | low polyreactivity
QVQLVESGGGLVQAGGSLRLSCAASGRIFDFNAMGWYRQAPGKDRELLAAISRGGGSTYYADSVKGRFTMSRDNAKYTVYLQMNSLKPEDTAVYYCNADYYYPLRSNKYYYWGQGTQVTVSS | high polyreactivity
QVQLVESGGGLVQAGGSLRLSCAASGRIFDFNAMGWYRQAPGKEREVVAAISSGGRTKYADSVKGRFTISRDNAKNTVYLQMNSLKPEDTAVYYCAASGSQPDDYWGQGTQVTVSS | high polyreactivity
QVQLVESGGGLVQAGGSLRLSCAASGRIFDFYGMGWYTQAPGKERELVAAISRRSGSTYYADSVKGRFTISRDNAKNTDYLQMNSLKPEDTAVYYCAAEPSSYRYDYWGQGTQGTVSS | high polyreactivity
QVQLVESGGGLVQAGGSLRLSCAASGRIFDGYAMGWYIQAPGKERELVAAISSRGGRTYYADSVKGRFTISRDNAKNTVYLQMNSLKPEDSAVYYCAADDPYGECDYWGQGTQVTVSS | low polyreactivity
QVQLVESGGGLVQAGGSLRLSCAASGRIFDGYAMGWYRQAPGQERELVAAISSRGGRTYYADSVKGRFTISRDHAKNTVYLQMNSLKPEDTAVYYCAADDPYGEGDYWGQGTQVTVSS | low polyreactivity
QVQLVESGGGLVQAGGSLRLSCAASGRIFDGYDMGWYRQAPGKERELVAAITSVGSTNYADSVKGRFTISRDNAKNTVYLQMNSLKPEDSAVYYCAAVLYVFYDEYGYWEYFSQYDYWGQGTQVTVSS | low polyreactivity
QVQLVESGGGLVQAGGSLRLSCAASGRIFDHNAMGWYRQAPGKERELVAAIDWSGGSTYYADSVKGRFTISRDNAKNTVYLQMNSLKPEDTAVYYCNVYWHTFSWDDYGYWGQGTQVTVSS | low polyreactivity
QVQLVESGGGLVQAGGSLRLSCAASGRIFDINAMGWYIQAPGKERELVAAINYNGSSTYYADSVKGRFTISRDNAKNTVYLQKNSLKPEDTAVYYCATVQVDVYTYDYWGQGTKVTVSS | high polyreactivity
QVQLVESGGGLVQAGGSLRLSCAASGRIFDLYAMRWYRQAPGKESELVAAISIRGGSTYYADSVKGRFTISRDNAKNTVYLQMNSLKPEDTAVYYCAAEGPWLSDEYDYWGQGTQVTVSS | low polyreactivity
QVQLVESGGGLVQAGGSLRLSCAASGRIFDLYTMGWYRQAPGKERELVAAISSSGGSTYYADSVKGRFTISRDNARNTVYLQMNSLKPEDTAVYYCNADWYYAGYGYWGQGTQVTVSS | low polyreactivity
QVQLVESGGGLVQAGGSLRLSCAASGRIFDQYALGGSRQAPGKERELVAAITSGGSTYYADSVKGRFTISRDNAKNTVYLQMNSLKPEDTAVYYCAAEWQWYGYVLYKYYYWGQGTQVTVSS | high polyreactivity
QVQLVESGGGLVQAGGSLRLSCAASGRIFDRNAMGWYRQAPGKERELVATISSGDTTDYADSVKGRFTISRDNAKNTVYLQMNSLKPEDTAVYYITIYNYWGQGTQVTVSS | low polyreactivity

Sequence | polyreactivity (PSR sort gate)
QVQLVESGGGLVQAGGSLRLSCAASGRIFDRNAMVWYRQEPWKERELVAAIDDSGGDTSYADSVKGRFTISRDNAKNTVYLQMNSLKPEDTAVYYCNAGYADFVTYPRYYYWGQGTQVTLSS | low polyreactivity
QVQLVESGGGLVQAGGSLRLSCAASGRIFDRYAMGWYRQAPGKERELVAAITSSGGRTYYADSVKGRFTISRDNAKNTVYLQMYSLKPEDTAVYYCAARWYGGYNYWGQGTQVTVSS | high polyreactivity
QVQLVESGGGLVQAGGSLRLSCAASGRIFDRYAMGWYRQAPGKERELVASITSSGGNTYYADSVKGRFTISRDNAKNTVYLQMNSLKPEDTAVYYCAKPQRVWQYGNYYYWGQGTQVTVSS | high polyreactivity
QVQLVESGGGLVQAGGSLRLSCAASGRIFDRYAMGWYRQAPGKERELVATIDSGGSTNYADSVKGRFTISRDNAKNTVYLQMNSLKPEDTAVYYCAVVTHSGYWSYYYWGQGTQVTVSS | low polyreactivity
QVQLVESGGGLVQAGGSLRLSCAASGRIFDSNAMGWYRQAPGKERELVAYITSGGRTYYADSVKGRFTISRDNAKNTVYLQMNSLKAEDTAVYYCAVRSYKRGPLDYWGQGTQVTVSS | high polyreactivity
QVQLVESGGGLVQAGGSLRLSCAASGRIFDTNAMGWYRQAPGKERAFVAAISRSGGSTYYADSVKGRFTISRDNAKNTVYLQMNSLKPEDTAVYYCAARWYVLQPLGYDATHRKYYWGQGTQVTVSS | high polyreactivity
QVQLVESGGGLVQAGGSLRLSCAASGRIFDTNAMGWYRQAPGKERELVAAISSGDTTNYADSVKGRFTISRDNAKNTVYLQMNSLKPEDTAVYYCAVYAISFGWSGWTYEDSWGQGTQVTVSS | low polyreactivity
QVQLVESGGGLVQAGGSLRLSCAASGRIFDTYVMGWYRQAPGKERELVAAISGSGGSTYYADSVKGRFTISRDIAKNTVYLQMNSLKPEDTAVYYCAAARRYYAYRYDYWGQGTQVSVSS | high polyreactivity
QVQLVESGGGLVQAGGSLRLSCAASGRIFDVNAMGWYRQAPGKERELVAAIRSGGRTNYADSVNGRFTISRDNAKNTVYLQMNSLKPEDTAVYYCAAVVWSSLDDYWGQGTQVTVSS | high polyreactivity
QVQLVESGGGLVQAGGSLRLSCAASGRIFDVNVMGWYRQAPGKERELVADISSGGGTDYADSVKGRFTISRDNAKNTVYLQMNILKQEDTAVYSCDWGQGTQVTVSS | low polyreactivity
QVQLVESGGGLVQAGGSLRLSCAASGRIFDVYAMGWYRQAPGKERELVAAITWSGGRTYYADSVKGRFTISRDNAKNTVYLQLNSLKPEDTAVYYCAAEKPYVRGYLWTYDYWGQGTQVTVSS | low polyreactivity
QVQLVESGGGLVQAGGSLRLSCAASGRIFDWNAVGWYRQAPGKERELVAAITWTGGTTYYADSVKGRFTISRDNAKNTVYLQMNSLKPEDTAVYYCAKRGGNQFAYRARSFDYWGQGTQVTLSS | low polyreactivity
QVQLVESGGGLVQAGGSLRLSCAASGRIFDWNTMGWYRQAPGKERELVAAISYDGSTYYADSVKGRFTISRDNAKNTVYLQMNSLKPEDTAVYYCNAYPLTQYFAQGYDYWGQGTQVTVSS | low polyreactivity
QVQLVESGGGLVQAGGSLRLSCAASGRIFDWNVMGWYRQAPGKERELVAVINDSTGTTYYADSVKGRFTISRDNAKNTVYLQMNSLKPEDTAVYYCSADWSVFTYFYGYDYWGQGTQVTVSS | low polyreactivity
QVQLVESGGGLVQAGGSLRLSCAASGRIFDWYAMGWYRQAPGKERELVAAISTSGANTYYADSVKGRFTISRDNAKNTVYLQMNSLKPEDTAVYYCATDPYQPYEGDYWGQGSQVTVSS | low polyreactivity
QVQLVESGGGLVQAGGSLRLSCAASGRIFDYNTLGWYRQAPGKERELVAAISASGTRTYYADSVKGRFTISRDNAKNTVYLQMNSLKPEDTAVYYCAAVYSYIASYLRYDYWGQGTQVTVSS | high polyreactivity
QVQLVESGGGLVQAGGSLRLSCAASGRIFDYYAMGWYRQAPGKERELVAAISLIGASTYYADSVKGRFTISRDNAKNTVYLQMNSLKPEDTAVYYCAAEFYLRRFKVTKRYWFDYWGQGTQVTVSS | low polyreactivity
QVQLVESGGGLVQAGGSLRLSCAASGRIFDYYDMGWYRQAPVKERELVAAITSSGTSTYYADSVKGRFTISRDNAKNTVYLQMNSLKPEDTAVYYCNARSIRPWGENGFWGQGTQVTVSS | high polyreactivity
QVQLVESGGGLVQAGGSLRLSCAASGRIFDYYPKGWYRQAPGKERELVAAISVRGGSTYYADSVKGRFTISRDNAKNTVYLQMNSLKPEDTAVYYCAARSWPHRTYYYWGQGTQVTVSS | high polyreactivity
QVQLVESGGGLVQAGGSLRLSCAASGRIFEDYAMGWYRQAPGKERELVARISSGDSTNYADSVKGRFTISRDNAKNTVYLQMNSLKPEDTAVYYCNADRGDLYELRGSGYLDGYWGQGTQVTVSS | low polyreactivity
QVQLVESGGGLVQAGGSLRLSCAASGRIFEFNAMGRYIQAPGKERELVARISYSGGSTYYADSLKGRFTISRDNAKNTVYLQMNSLKPEDTAVYYCAAKPSRYFYNAWGYRQVYQYDYWGQGTQVTVSS | high polyreactivity
